Consider three molecules from PMC9900698, “Phosphorylation Regulation of a Histone-like HU Protein from Deinococcus radiodurans”.

Broadly, the Kd is the free concentration of one partner at which half of the binding sites on the other are occupied at equilibrium, for simple one-to-one binding.

To fix the notation:
T1: DrHU WT (Deinococcus radiodurans R1 (ATCC13939), UniProt Q9RZ89 1-122)
T1 sequence: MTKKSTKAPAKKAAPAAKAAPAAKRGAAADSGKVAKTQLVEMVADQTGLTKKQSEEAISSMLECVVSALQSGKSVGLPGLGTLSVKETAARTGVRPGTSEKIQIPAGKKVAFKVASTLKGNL

B1: Duplex DNA (48bp) (dsDNA)
DNA 1: TAACAAGCAGAGTCAATTATGTCAATGACATAAAAGGCTCAGGCCTTC
DNA 2: GAAGGCCTGAGCCTTTTATGTCATTGACATAATTGACTCTGCTTGTTA
B2: Duplex DNA (36bp) (dsDNA)
DNA 1: GCAGAGTCAATTATGTCAATGACATAAAAGGCTCAG
DNA 2: CTGAGCCTTTTATGTCATTGACATAATTGACTCTGC
B3: Duplex DNA (24bp) (dsDNA)
DNA 1: TCAATTATGTCAATGACATAAAAG
DNA 2: CTTTTATGTCATTGACATAATTGA

In the series the target is T1, DrHU WT. Nature of the series: EMSA; 10 mM Mg2+; EMSA: 50 mM NaCl, 20 mM Tris-HCl pH 8.0, 0.1 mg/ml BSA, 3 mM DTT, 0.1 mM EDTA, 10% glycerol, 10 mM MgCl2, 50 nM DNA, 0-3200 nM DrHU, room temperature 20 min; 22% native PAGE in 1x TB. The settings on record: protein: recombinant; tags: N-terminal His-MBP (pET28a-HMT), removed by TEV; chain copies: 2; label: 5'-FAM; blunt.
With B1, the Kd was found to be 449 ± 29.6 nM.
For the molecule B2, the Kd worked out at 1350 ± 200 nM.
The value for B3 was 1480 ± 41.8 nM.
